Read-outs that look alike come from different tables or passages of the source.
B1: TIGIT-19 chimeric antibody (antibody, human IgG1, kappa, V domains shown)
VH: QVQLQQPGPELVKPGTSVMLSCKASGYAFSRYSMYWVKQSHGKSLEWIAFIDPYNGGSTYNQRFRGKATLTVDKSSSTAYMHLNTLTSDDSAVYYCARGGDYGWYLGVWGAGTTVTVSS
VL: DIQMTQSPASLSASVGETVTITCRPSENIYTYLSWYQQKRGKSPQLLVYNAKTLPENVPSRFSGSGSGTQFSLKIDSLQPEDFGNYYCQHHYGNPLTFGAGTKLELKR
notes: also called 19VH + 19VL
B2: huTIGIT-6-4 (antibody, human IgG1, kappa, V domains shown)
VH: QVQLVQSGAEVKKPGASVKVSCKASGYTFTENAMHWVRQAPGQRLEWIGGINPNNAGTSYSQKFQGRATLTVDTSASTAYMELSSLRSEDTAVYYCTRSSYYRYDLDYWGQGTTVTVSS
VL: DIQMTQSPSSLSASVGDRVTITCQASQDIKTALAWYQQKPGKAPKLLIYSASYRYTGVPSRFSGSGSGTDFTFTISSLQPEDIATYYCHQHYTTPWTFGGGTKLEIKR
notes: Humanized IgG; also called 6VH6.M7 + 6VL1.M1
B3: reshaped TIGIT-3 antibody 3VH3 + 3VL1 (antibody, V domains shown)
VH: EVQLVESGGGLVQPGGSLRLSCAASGFTFSSYGMSWVRQAPGKGLELVATIKSDGGSTNLPDSVKGRFTISRDNSKNTLYLQMNSLRAEDTAVYYCVRGYFDYWGQGTTVTVSS
VL: DIQMTQSPSSLSASVGDRVTITCKASQDVKTAVAWYQQKPGKVPKLLIYWSSTRHTGVPSRFSGSGSGTDFTLTISSLQPEDVATYYCQQYYSTPYTFGGGTKVEIK
notes: Full-length IgG, tested as HEK293 supernatant
B4: humanized TIGIT-19 antibody 19VH4 + 19VL1 (antibody, V domains shown)
VH: QVQLVQSGAEVKKPGASVKVSCKASGYAFSRYSMYWVRQAPGQGLEWIAFIDPYNGGSTYNQRFRGKATLTVDTSISTAYMELSRLRSDDTAVYYCARGGDYGWYLGVWGQGTLVTVSS
VL: DIQMTQSPSSLSASVGDRVTITCRPSENIYTYLSWYQQKPGKAPKLLIYNAKTLPEGVPSRFSGSGSGTDFTLTISSLQPEDFATYYCQHHYGNPLTFGQGTKVEIK
notes: as for B3

Assays:
[1] = biological target: T1, human TIGIT expressed on CHO-K1 cells (human, UniProt Q495A1 22-244); experiment: flow cytometry competition: biotinylated CD155-Fc on human TIGIT-CHO-K1 cells
T1 construct: whole, on cells; also called human TIGIT-CHO-K1 cells; human TIGIT over-expressing cell line
T1 sequence (looked up): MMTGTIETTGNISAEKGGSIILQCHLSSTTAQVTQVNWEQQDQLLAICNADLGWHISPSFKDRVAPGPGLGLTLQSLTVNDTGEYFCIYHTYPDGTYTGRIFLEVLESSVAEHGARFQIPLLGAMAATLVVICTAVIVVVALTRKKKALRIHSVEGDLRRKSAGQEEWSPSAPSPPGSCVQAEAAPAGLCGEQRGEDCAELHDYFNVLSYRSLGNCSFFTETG

[2] = biological target: T1, human TIGIT expressed on CHO-K1 cells; experiment: flow cytometry on CHO-K1 cells expressing human TIGIT
[3] = biological target: T2, TIGIT on TIGIT-over expressing NFAT-Luc/Jurkat effector cells (GenScript reporter cell line) (UniProt Q495A1 22-244, limits assumed); experiment: cell-based or functional assay
T2 sequence (looked up): T1 sequence (looked up)

[4] = biological target: T1, human TIGIT expressed on CHO-K1 cells; experiment: flow cytometry on CHO-K1 cells expressing human TIGIT; remark: listed apart in the source
[5] = biological target: T3, His-tagged human TIGIT (human, UniProt Q495A1 22-141); experiment: SPR (Biacore T200), antibody captured, His-tagged TIGIT analyte
T3 construct: SPR analyte; also called human TIGIT protein; not shown: His tag
T3 sequence: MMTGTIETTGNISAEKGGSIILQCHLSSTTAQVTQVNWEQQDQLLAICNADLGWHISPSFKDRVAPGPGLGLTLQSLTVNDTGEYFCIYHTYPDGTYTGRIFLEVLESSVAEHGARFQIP

[6] = biological target: T4, His-tagged cynomolgus TIGIT (cynomolgus, UniProt A0A7N9I9V4 89-209); experiment: as above
T4 construct: SPR analyte; also called cynomolgus TIGIT protein; not shown: His tag

[7] = biological target: T2, TIGIT on TIGIT-over expressing …; experiment: cell-based or functional assay; remark: listed apart in the source
[8] = biological target: T5, cynomolgus TIGIT expressed on CHO-K1 cells (cynomolgus, UniProt A0A7N9I9V4 89-312); experiment: flow cytometry on CHO-K1 cells expressing cynomolgus TIGIT
T5 construct: whole, on cells; also called cynomolgus TIGIT over-expressing cell line

[9] = biological target: T3, His-tagged human TIGIT; experiment: SPR experiment 2, IgG from HEK293 supernatant captured
[10] = biological target: T3, His-tagged human TIGIT; experiment: SPR experiment 1, IgG from HEK293 supernatant captured
[11] = biological target: T1, human TIGIT expressed on CHO-K1 cells; experiment: flow cytometry competition: biotinylated CD155-Fc on human TIGIT-CHO-K1 cells; remark: listed apart in the source
[12] = biological target: T5, cynomolgus TIGIT expressed on CHO-K1 …; experiment: flow cytometry on CHO-K1 cells expressing cynomolgus TIGIT; remark: listed apart in the source
[13] = biological target: T3, His-tagged human TIGIT; experiment: SPR (Biacore T200), antibody captured, His-tagged TIGIT analyte; remark: listed apart in the source
[14] = biological target: T4, His-tagged cynomolgus TIGIT; experiment: as above; remark: listed apart in the source
[15] = biological target: T3, His-tagged human TIGIT; experiment: SPR experiment 2, IgG from HEK293 supernatant captured; remark: listed apart in the source
[16] = biological target: T5, cynomolgus TIGIT expressed on CHO-K1 …; experiment: flow cytometry on TIGIT over-expressing CHO-K1 cells
[17] = biological target: T3, His-tagged human TIGIT; experiment: SPR experiment 3, IgG from HEK293 supernatant
[18] = biological target: T3, His-tagged human TIGIT; experiment: SPR experiment 3, IgG from HEK293 supernatant captured
[19] = biological target: T3, His-tagged human TIGIT; experiment: SPR, IgG from HEK293 supernatant; against 19VH + 19VL

T4 sequence (A0A7N9I9V4 entry or part of it): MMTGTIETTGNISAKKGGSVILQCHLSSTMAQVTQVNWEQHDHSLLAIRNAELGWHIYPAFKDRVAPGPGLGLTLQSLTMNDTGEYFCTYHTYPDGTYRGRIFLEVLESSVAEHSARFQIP
T5 sequence (A0A7N9I9V4 entry or part of it): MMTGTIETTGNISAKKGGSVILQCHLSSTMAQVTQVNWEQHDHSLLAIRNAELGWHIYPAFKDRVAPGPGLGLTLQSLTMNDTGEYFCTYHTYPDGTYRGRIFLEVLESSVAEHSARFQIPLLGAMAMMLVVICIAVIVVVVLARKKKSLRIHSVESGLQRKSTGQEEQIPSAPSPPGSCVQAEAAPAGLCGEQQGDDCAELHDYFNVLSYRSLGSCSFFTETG

Row | Binder | EC50 [2] [nM] | Bottom (RLU) [3] [RLU] | EC50 [3] [nM] | Top (RLU) [3] [RLU] | Kd [5] [nM] | koff [5] [s⁻¹] | kon [5] [M⁻¹ s⁻¹] | Kd [6] [nM] | koff [6] [s⁻¹] | kon [6] [M⁻¹ s⁻¹] | EC50 [8] [nM] | Kd [9] [nM] | koff [9] [s⁻¹] | kon [9] [M⁻¹ s⁻¹] | Kd [10] [nM] | koff [10] [s⁻¹] | kon [10] [M⁻¹ s⁻¹] | IC50 [11] [nM] | further results
1 | B1 | 0.311 | 47600 | 2.75 | 130000 | 0.04 | 5.9e-05 | 1.5e+06 | 0.032 | 3.2e-05 | 1e+06 | 0.524 | 0.12 | 0.00015 | 1.2e+06 | 0.071 | 9.7e-05 | 1.4e+06 | 0.26 | IC50 [1]: 0.4 nM; EC50 [4]: 0.41 nM; Bottom (RLU) [7]: 11100 RLU; EC50 [7]: 3.28 nM; Top (RLU) [7]: 41600 RLU; EC50 [12]: 1.05 nM; Kd [13]: 0.071 nM; koff [13]: 0.0001 s⁻¹; kon [13]: 1.5e+06 M⁻¹ s⁻¹; Kd [14]: 0.091 nM; koff [14]: 6.6e-05 s⁻¹; kon [14]: 730000 M⁻¹ s⁻¹
2 | B2 | 1.02 | 46800 | 14.8 | 128000 | 0.58 | 0.00019 | 330000 | 260 | 0.013 | 47000 | 16.7 |  |  |  |  |  |  | 1.17 | Kd [15]: 0.75 nM; koff [15]: 0.00023 s⁻¹; kon [15]: 300000 M⁻¹ s⁻¹; fold EC50 on cynomolgus against human TIGIT cell line [16]: > 10 fold
3 | B3 |  |  |  |  |  |  |  |  |  |  |  |  |  |  |  |  |  |  | fold affinity decrease [17]: ~100 fold; Kd [18]: 36 nM; koff [18]: 0.0076 s⁻¹; kon [18]: 210000 M⁻¹ s⁻¹
4 | B4 |  |  |  |  |  |  |  |  |  |  |  | 0.028 | 3.3e-05 | 1.2e+06 | 0.0196 | 2.51e-05 | 1.28e+06 |  | fold improvement of binding affinity [19]: ~4 fold
